Measurements from patent US20170218047A1, “NOVEL FUSION PARTNERS FOR THE PURPOSE OF CRYSTALLIZING G-PROTEIN COUPLED RECEPTORS” (THE SCRIPS RESEARCH INSTITUTE, priority 2011, published 2017).

Assays:
[1] = Fluorescence (CPM) thermostability assay of β2AR constructs; assay type: physicochemical; conditions: 100 μM timolol; for thermostability: more stable than β2AR-T4L: increase relative to β2AR-T4L; for thermostability: less stable relative to β2AR-T4L: decrease relative to β2AR-T4L
Description: N-[4-(7-diethylamino-4-methyl-3-coumarinyl)phenyl]maleimide (CPM) dye was purchased from Invitrogen and dissolved in DMSO (Sigma) at 4 mg/mL as the stock solution for future use. The stock solution was kept at −80° C. and was diluted 1:40 in dye dilution solution (10 mM buffer, 500 mM NaCl, 10% glycerol, 0.025% DDM and 0.005% CHS) before use. The thermal denaturation assay was performed with total volume of 200 μL sample in a quartz fluorometer cuvette (Starna Cells, Inc., Atascadero, Calif.). Receptor (4 μg) was diluted in the appropriate buffer solution to a final volume of 200 μL, 5 μL of the diluted dye was added to the protein solution and incubated for 30 min at 4° C. The mixed solution was transferred to the cuvette and the data were collected by a Cary Eclipse spectrofluorometer (Varian, USA) with a temperature ramping rate at 2° C./min. The excitation wavelength was 387 nm and the emission wavelength was 463 nm. All assays were performed over a temperature range starting from 20° C. and 95° C. The stability data were processed with GraphPad Prism program (GraphPad Prism, Graphpad Software, San Diego, Calif., USA). In order to determine the melting temperature (Tm), a Boltzmann sigmoidal equation was used to fit to the data.
The thermostability of the different β2AR constructs was then evaluated. Assays were carried out in the presence of 100 μM timolol to maintain receptor stability during heating. […] We thus selected β2AR-BRIL and β2AR rubredoxin for further crystallization studies.

[2] = Size exclusion chromatography (SEC) of purified S1P1-fusion partner proteins; assay type: physicochemical; conditions: presence or absence of ligand
Description: S1P1-fusion partner proteins (“S1P1 fusion receptors”) were purified from membranes by dodecyl-maltoside (DDM) extraction followed by immobilized metal affinity chromatography (IMAC) on Talon resin (Clontech) as detailed below. Frozen cellular membranes were thawed by adding room temperature lysis buffer to a total volume of 25 mL. The S1P1 receptor antagonist W146 was added to a final concentration of 125 μM. The mixture was allowed to incubate at room temperature for 1 hour to ensure complete saturation of the receptor with ligand followed by addition of iodoacetamide to a concentration of 1 mg/mL and an additional 1 hour incubation at 4° C. Receptor solubilization was initiated by addition of detergent and cholesteryl hemisuccinate (CHS) to achieve a final concentration of 0.5% DDM 0.1% CHS. The solubilization buffer consisted of the following mixture: 50 mM Hepes pH 7.5; 800 mM NaCl; 30 mM Imidazole; 0.1% DDM 0.02% CHS; 125 μM W146. […]
Eluted proteins were analyzed by size-exclusion chromatography (SEC) followed by SDS-PAGE. […] SEC fractions corresponding to S1P1-fusion partner proteins were evaluated separated by SDS-PAGE on a 10% gel and stained, confirming that each S1P1-fusion partner protein could be purified to near-homogeneity (data not shown).

Substance: 132AR-rubredoxin: β2-adrenergic receptor fused with rubredoxin, SEQ ID NO: 11
- thermostability: more stable than β2AR-T4L [1]: approximately 8 °C

Substance: β2AR-flavodoxin: β2-adrenergic receptor fused with flavodoxin in place of T4L, SEQ ID NO: 13
- thermostability: less stable relative to β2AR-T4L [1]: about 9 °C

Substance: β2AR-BRIL: β2-adrenergic receptor with cytochrome b562 RIL replacing the third intracellular loop, SEQ ID NO: 10
- thermostability: more stable than β2AR-T4L [1]: approximately 8 °C

Substance: β2AR xylanase: β2-adrenergic receptor fused with xylanase, SEQ ID NO: 12
- thermostability: more stable than β2AR-T4L [1]: about 3 °C

Substance: β2AR-C-term T4L: β2-adrenergic receptor fused with T4 lysozyme C-terminal fragment, SEQ ID NO: 9
- thermostability: less stable relative to β2AR-T4L [1]: ~4 °C

Substance: S1P1-Bril: S1P1 receptor with cytochrome b562 RIL replacing part of ICL3, SEQ ID NO: 2
- stability by SEC (in words) [2]: stable in the presence or absence of ligand
